Assay results from US20040214230A1.

B1: porcine GALP (peptide)
peptide: APVHRGRGGWTLNSAGYLLGPVLHPPSRAEGGGKGKTALGILDLWKAIDGLPYPQSQLAS
B2: rat GALP (peptide)
peptide: APAHRGRGGWTLNSAGYLLGPVLHLSSKANQGRKTDSALEILDLWKAIDGLPYSRSPRMT
B3: human GALP (peptide)
peptide: APAHRGRGGWTLNSAGYLLGPVLHLPQMGDQDGKRETALEILDLWKAIDGLPYSHPPQPS

Each binder was assayed against monoclonal antibody GR-1Ca (assay: competitive EIA: GALP varied against HRP-labeled [Cys^43] rat GALP (43-60); GR-1Ca solution of 80 ng/ml on anti-mouse immunoglobulin plate).

IC50 [nM]	Binder
8	B1
3	B2
7	B3

The binders below were run against monoclonal antibody GR-2Ca (assay: competitive EIA: GALP varied against HRP-labeled [Cys^43] rat GALP (43-60); GR-2Ca solution of 80 ng/ml on anti-mouse immunoglobulin plate).

IC50 [nM]	Binder
500	B1
10	B2
20	B3
